Measured values as given in patent US7943296B2, “Methods of screening using a natriuretic peptide receptor” (Oregon Health & Science University, priority 2005, dated 2011).

Biological target: T1, NPRA (Rattus norvegicus, UniProt P18910)
T1 construct: endogenous in cells; host or cells: primary neonatal rat cardiac fibroblasts, transfected with insertless vector or sNRF^(806-900)
T1 sequence (P18910 29-1057): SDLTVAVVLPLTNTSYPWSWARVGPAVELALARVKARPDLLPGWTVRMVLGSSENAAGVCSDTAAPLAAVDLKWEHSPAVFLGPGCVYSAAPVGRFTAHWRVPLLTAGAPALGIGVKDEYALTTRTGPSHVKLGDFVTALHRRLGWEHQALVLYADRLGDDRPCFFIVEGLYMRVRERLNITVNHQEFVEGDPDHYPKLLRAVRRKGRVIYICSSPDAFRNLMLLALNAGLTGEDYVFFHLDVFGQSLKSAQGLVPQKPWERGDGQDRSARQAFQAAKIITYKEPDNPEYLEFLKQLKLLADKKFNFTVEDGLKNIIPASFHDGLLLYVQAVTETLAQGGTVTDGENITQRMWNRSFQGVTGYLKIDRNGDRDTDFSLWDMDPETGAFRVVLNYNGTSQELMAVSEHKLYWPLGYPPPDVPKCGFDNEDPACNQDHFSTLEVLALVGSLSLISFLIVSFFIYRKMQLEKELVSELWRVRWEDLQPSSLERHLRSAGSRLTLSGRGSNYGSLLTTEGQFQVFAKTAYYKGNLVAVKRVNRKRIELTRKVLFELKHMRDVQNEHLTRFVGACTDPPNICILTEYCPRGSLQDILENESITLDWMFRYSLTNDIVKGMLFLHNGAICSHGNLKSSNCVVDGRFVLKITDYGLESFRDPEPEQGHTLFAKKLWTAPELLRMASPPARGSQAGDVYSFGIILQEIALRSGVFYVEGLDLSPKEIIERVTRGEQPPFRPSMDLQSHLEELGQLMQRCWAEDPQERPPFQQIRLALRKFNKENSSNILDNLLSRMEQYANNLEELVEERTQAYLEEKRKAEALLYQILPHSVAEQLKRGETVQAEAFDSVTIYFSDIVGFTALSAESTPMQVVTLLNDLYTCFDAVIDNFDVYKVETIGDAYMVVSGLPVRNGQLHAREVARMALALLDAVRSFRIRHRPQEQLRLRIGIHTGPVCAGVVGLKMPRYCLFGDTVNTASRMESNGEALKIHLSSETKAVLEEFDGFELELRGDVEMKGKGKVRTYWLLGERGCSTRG
Experiment: Total cGMP by enzyme immunoassay in NP-treated CFs
Assay type: cell-based
Conditions: fragment expressed alone, no ANP; 100 μM IBMX
Description: The ability of sNRF^(806-900) to reduce or inhibit downstream effects by modulating the intrinsic guanylyl cyclase activity of NPRA, was determined by measuring total cGMP levels in NP-treated CFs. CFs were transfected with insertless vector or sNRF^(806-900) as described in Example 7 and treated with ANP (100 nM) for 15 minutes. cGMP concentration was determined by enzyme immunoassay using a commercial kit (Enzyme immunoassay Biotrak EIA System, Amersham Biosciences). In all experiments, cells were treated with 100 μM IBMX with or without ANP.

cGMP levels: significantly increased cGMP levels
Substance: sNRF^(806-900): intracellular NPRA fragment, residues 806-900, excludes the cyclase-containing domain; shortest fragment observed to associate with PKG
